# Data reported in paper PMC11679068, “Affinity Peptide-Based Circularly Permuted Fluorescent Protein Biosensors for Non-Small Cell Lung Cancer Diagnosis” (Sensors (Basel, Switzerland), 2024).
# Peptide text beside a SMILES is read from it.
# B1: synthetic peptide S2 (peptide)
# peptide: AYSRDVVLNMWR
# notes: dodecapeptide S2 from phage display, synthesized; source: synthetic peptide (Fmoc solid phase, Synpeptide Co., HPLC purified)
# B2: synthetic peptide Y3 (peptide)
# peptide: GMCSFVDVANCP
# notes: dodecapeptide Y3 from phage display, synthesized; source: synthetic peptide (Fmoc solid phase, Synpeptide Co., HPLC purified)
# B3: synthetic peptide S1 (peptide)
# peptide: TLSWHQNLRLME
# notes: dodecapeptide S1 from phage display, synthesized; source: synthetic peptide (Fmoc solid phase, Synpeptide Co., HPLC purified)
# B4: synthetic peptide Y10 (peptide)
# peptide: QSYFNACWSCNH
# notes: source: synthetic peptide (Fmoc solid phase, Synpeptide Co., HPLC purified)
# B5: synthetic peptide Y1 (peptide)
# peptide: CFAGTPSILMLA
# notes: dodecapeptide Y1 from phage display, synthesized; source: synthetic peptide (Fmoc solid phase, Synpeptide Co., HPLC purified)
# B6: synthetic peptide C3 (peptide)
# peptide: WSPSALLPSSVT
# notes: dodecapeptide C3 from phage display, synthesized; source: synthetic peptide (Fmoc solid phase, Synpeptide Co., HPLC purified)
# B7: synthetic peptide C4 (peptide)
# peptide: HHRLTRSMQLMM
# notes: dodecapeptide C4 from phage display, synthesized; source: synthetic peptide (Fmoc solid phase, Synpeptide Co., HPLC purified)
# B8: synthetic peptide S3 (peptide)
# peptide: IQCFSLAPYVGC
# notes: dodecapeptide S3 from phage display, synthesized; source: synthetic peptide (Fmoc solid phase, Synpeptide Co., HPLC purified)
# B9: synthetic peptide C2 (peptide)
# peptide: YGVSALSSYVSC
# notes: dodecapeptide C2 from phage display, synthesized; source: synthetic peptide (Fmoc solid phase, Synpeptide Co., HPLC purified)
# How the values were obtained:
# [1] = biological target: CYFRA 21-1; test: BLI binding affinity of synthesized peptides to immobilized CYFRA 21-1; settings: Octet RH96, CYFRA 21-1 immobilized on AR2G biosensors by amine coupling, room temperature, association 90 s, dissociation 180 s, KD = kd/ka
# Protocol: The binding affinities of the peptides to their respective markers were assessed using an Octet RH96 instrument (Sartorius AG, Goettingen, Germany) with software version 12.2.1.18. Markers CEA, SCCAg, and CYFRA 21-1 were immobilized on amine reactive second-generation biosensors (AR2G, Sartorius AG) via amine coupling, with ethanolamine used to quench unreacted sites. Peptides were prepared in a range of concentrations. Experiments were conducted at room temperature and involved three phases: baseline (60 s), association (90 s), and dissociation (180 s). Data analysis was performed using Octet Data Analysis software version 11.0 to calculate the equilibrium dissociation constant (KD) as dissociation constant (kd)/association constant (ka).
# [2] = biological target: squamous cell carcinoma antigen (UniProt P29508 1-390); test: BLI; Octet RH96; CEA, SCCAg or CYFRA 21-1 immobilised on AR2G biosensors by amine coupling; peptides in a range of concentrations; room temperature; association 90 s, dissociation 180 s; KD as kd/ka; settings: both partners purified
# squamous cell carcinoma antigen, sequence (P29508 whole entry, the tested form may be a part): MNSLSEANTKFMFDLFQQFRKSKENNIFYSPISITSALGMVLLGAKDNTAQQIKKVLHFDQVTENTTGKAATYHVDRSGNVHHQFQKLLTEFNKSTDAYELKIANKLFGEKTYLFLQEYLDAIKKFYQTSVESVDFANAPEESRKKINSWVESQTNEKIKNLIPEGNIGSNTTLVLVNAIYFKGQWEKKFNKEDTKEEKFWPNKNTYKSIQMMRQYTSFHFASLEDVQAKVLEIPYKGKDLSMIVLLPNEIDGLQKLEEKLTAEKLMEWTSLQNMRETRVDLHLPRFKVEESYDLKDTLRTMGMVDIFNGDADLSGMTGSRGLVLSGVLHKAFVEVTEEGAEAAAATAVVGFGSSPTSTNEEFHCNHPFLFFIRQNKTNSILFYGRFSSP
# [3] = biological target: T1, cytokeratin fragment 19 (Limits are not printed. The conventional CYFRA 21-1 soluble C-terminal fragment of KRT19 (after caspase-3 cleavage at Asp238) is used; from general knowledge, not from the paper or the candidate featu); test: as above; settings: both partners purified
# T1 chain: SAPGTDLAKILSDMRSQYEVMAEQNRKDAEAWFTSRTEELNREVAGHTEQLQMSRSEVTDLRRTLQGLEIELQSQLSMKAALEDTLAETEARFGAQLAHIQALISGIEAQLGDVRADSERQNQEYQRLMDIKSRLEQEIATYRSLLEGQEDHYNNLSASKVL
# [4] = biological target: T2, carcinoembryonic antigen (UniProt P06731 35-685); test: as above; settings: both partners purified
# T2 construct: carcinoembryonic antigen (CEA), serum tumor marker; also called CEA; CAE
# T2 sequence (looked up): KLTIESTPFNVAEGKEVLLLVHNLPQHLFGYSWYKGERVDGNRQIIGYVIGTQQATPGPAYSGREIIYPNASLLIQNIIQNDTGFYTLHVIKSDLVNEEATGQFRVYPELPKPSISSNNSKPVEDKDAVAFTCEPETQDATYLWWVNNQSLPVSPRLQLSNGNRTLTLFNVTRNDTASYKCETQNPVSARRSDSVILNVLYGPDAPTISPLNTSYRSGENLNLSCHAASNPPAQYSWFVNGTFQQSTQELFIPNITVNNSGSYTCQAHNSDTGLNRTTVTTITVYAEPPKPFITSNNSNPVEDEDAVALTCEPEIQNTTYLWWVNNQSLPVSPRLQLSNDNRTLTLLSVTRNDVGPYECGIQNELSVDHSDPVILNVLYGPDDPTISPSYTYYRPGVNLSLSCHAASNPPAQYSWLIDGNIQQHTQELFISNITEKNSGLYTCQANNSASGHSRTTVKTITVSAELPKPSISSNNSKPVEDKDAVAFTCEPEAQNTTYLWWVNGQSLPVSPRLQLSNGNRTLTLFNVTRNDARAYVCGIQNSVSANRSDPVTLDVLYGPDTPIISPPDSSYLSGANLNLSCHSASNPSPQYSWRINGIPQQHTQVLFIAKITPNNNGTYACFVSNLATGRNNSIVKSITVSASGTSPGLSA
Molecule,Kd [2] [nM],Kd [3] [nM],Kd [4] [nM],also measured
CSCC[C@H](NC(=O)CN)C(=O)N[C@@H](CS)C(=O)N[C@@H](CO)C(=O)N[C@@H](Cc1ccccc1)C(=O)N[C@H](C(=O)N[C@@H](CC(=O)O)C(=O)N[C@H](C(=O)N[C@@H](C)C(=O)N[C@@H](CC(N)=O)C(=O)N[C@@H](CS)C(=O)N1CCC[C@H]1C(=O)O)C(C)C)C(C)C [Peptide Y3] (H-GMCSFVDVANCP-OH),,,,Kd [1]: 14 nM
B1,6.1,,,
B2,,14,,
B3,28,,,
B4,,1000,,
B5,,83,,
B6,,,460,
B7,,,16,
B8,2900,,,
B9,,,870,
